Test results from PMC6264893.
pKd: −log10 of the molar value.

Columns and labels:
[1] = target: prothymosin α (unlabeled, wildtype) (human) (UniProt P06454); experiment: NMR titration
[2] = target: ProTα labeled at positions 56 and 110 (FRET-labeled prothymosin α) (human) (UniProt P06454); experiment: FRET or BRET
[3] = target: ProTα labeled at positions 56 and 110 (FRET-labeled prothymosin α) (human) (UniProt P06454); experiment: stopped-flow FRET kinetics

linker histone H1.0, sequence (P07305 whole entry): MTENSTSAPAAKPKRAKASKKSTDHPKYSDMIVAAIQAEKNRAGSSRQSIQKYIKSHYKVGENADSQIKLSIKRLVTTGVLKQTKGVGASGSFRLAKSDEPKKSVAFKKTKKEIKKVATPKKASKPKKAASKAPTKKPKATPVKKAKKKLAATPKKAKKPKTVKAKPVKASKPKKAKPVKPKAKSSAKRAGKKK

stoichiometry N [1]	pKd [2]	koff [3] [s⁻¹]	Substance
> 4	5.72		globular domain of H1 (domain or fragment)
		0.0065	linker histone H1.0 (from UniProt P07305 1-194) (natural protein)
